From PMC11339442

Target: CD20
Experiment: flow_cytometry
Conditions: 4.0 °C

| EC50 (pH 7.4) [µM] | EC50 (pH 6.0) [µM] | Substance |
| --- | --- | --- |
| 0.014 |  | 2OSL-Fab (WT) |
|  | 0.02 | 2OSL-Fab-H-Y97NY |
|  | 0.008 | 2OSL-Fab-L-Y32NY |
